This note sets out measurements from paper PMC12101541.

The target of test [1] is GGlFGGn-TgSkp1 (fully glycosylated TgSkp1, GalGlcFucGalGlcNAc glycan at Hyp154) (Toxoplasma gondii). As to the kind of experiment: AUC; sedimentation velocity, 50,000 rpm, 20 °C, 50 mM K phosphate (pH 7.4), 25 mM KCl (standard buffer); Sw isotherm fitted with a monomer-dimer self-association model (SedPhat); dimer to monomers.
The target of test [2] is TgSkp1-poly-Ser (TgSkp1 with the CTR replaced by poly-serine) (Toxoplasma gondii). The test is described as above.
In test [3] the target is TgSkp1ΔCTR (TgSkp1 lacking the C-terminal region) (Toxoplasma gondii). The description is as above.
Test [4] has as its target TgSkp1Δloop (TgSkp1 with the internal disordered loop replaced by GGSG) (Toxoplasma gondii). Described as above.
For test [5] the target is unchanged. As to the kind of experiment: AUC; sedimentation velocity as in the standard experiment but with 600 mM KCl (high salt, ionic strength of 710 mM); Sw isotherm, monomer-dimer model; dimer to monomers.
In test [6] the target is TgSkp1ΔloopΔCTR (TgSkp1 with the internal loop replaced by GGSG and the CTR deleted) (Toxoplasma gondii). As to the kind of experiment: AUC; sedimentation velocity, 50,000 rpm, 20 °C, 50 mM K phosphate (pH 7.4), 25 mM KCl (standard buffer); Sw isotherm fitted with a monomer-dimer self-association model (SedPhat); dimer to monomers.
The target is the same in test [7]. As to the kind of experiment: AUC; sedimentation velocity as in the standard experiment but with 600 mM KCl (high salt, ionic strength of 710 mM); Sw isotherm, monomer-dimer model; dimer to monomers.
For test [8], the target named is full-length TgSkp1 (Skp1 from Toxoplasma gondii), unmodified (Toxoplasma gondii). As to the kind of experiment: AUC; sedimentation velocity, 50,000 rpm, 20 °C, 50 mM K phosphate (pH 7.4), 25 mM KCl (standard buffer); Sw isotherm fitted with a monomer-dimer self-association model (SedPhat); dimer to monomers.

As usually defined, the Kd is a measure of binding affinity in units of concentration. Broadly, the stoichiometry N is the number of molecules, sites or subunits per partner or assembly. Regarding “GGlFGGn-TgSkp1 (fully glycosylated TgSkp1, GalGlcFucGalGlcNAc glycan at Hyp154) (natural protein)”, in test [1], the Kd amounted to 0.4 µM and the stoichiometry N came out at 2.
In test [2], “TgSkp1-poly-Ser (TgSkp1 with the CTR replaced by poly-serine)” returned a Kd of 0.9 µM and a stoichiometry N of 2.
In test [3], “TgSkp1ΔCTR (TgSkp1 lacking the C-terminal region) (domain or fragment)” returned a Kd of 0.9 µM and a stoichiometry N of 2.
In the case of “TgSkp1Δloop (TgSkp1 with the internal disordered loop replaced by GGSG) (natural protein)”, in test [4], the Kd was found to be 0.2 µM and the stoichiometry N stood at 2. The Kd in test [5] came out at 8.5 µM.
On to “TgSkp1ΔloopΔCTR (TgSkp1 with the internal loop replaced by GGSG and the CTR deleted) (domain or fragment)”, for which, in test [6], the Kd stood at 2.4 µM and the stoichiometry N is 2. The Kd in test [7] stood at 1.9 µM.
For “full-length TgSkp1 (Skp1 from Toxoplasma gondii), unmodified (natural protein)”, in test [8], the Kd came out at 0.05 µM, the degree of dissociation at 300 nM worked out at 18% and the stoichiometry N came out at 2.
